Changes are numbered by the printed parent chain. Names may count otherwise.
T1: G-CSF receptor
T1 sequence (Q99062 whole entry, species assumed, looked up): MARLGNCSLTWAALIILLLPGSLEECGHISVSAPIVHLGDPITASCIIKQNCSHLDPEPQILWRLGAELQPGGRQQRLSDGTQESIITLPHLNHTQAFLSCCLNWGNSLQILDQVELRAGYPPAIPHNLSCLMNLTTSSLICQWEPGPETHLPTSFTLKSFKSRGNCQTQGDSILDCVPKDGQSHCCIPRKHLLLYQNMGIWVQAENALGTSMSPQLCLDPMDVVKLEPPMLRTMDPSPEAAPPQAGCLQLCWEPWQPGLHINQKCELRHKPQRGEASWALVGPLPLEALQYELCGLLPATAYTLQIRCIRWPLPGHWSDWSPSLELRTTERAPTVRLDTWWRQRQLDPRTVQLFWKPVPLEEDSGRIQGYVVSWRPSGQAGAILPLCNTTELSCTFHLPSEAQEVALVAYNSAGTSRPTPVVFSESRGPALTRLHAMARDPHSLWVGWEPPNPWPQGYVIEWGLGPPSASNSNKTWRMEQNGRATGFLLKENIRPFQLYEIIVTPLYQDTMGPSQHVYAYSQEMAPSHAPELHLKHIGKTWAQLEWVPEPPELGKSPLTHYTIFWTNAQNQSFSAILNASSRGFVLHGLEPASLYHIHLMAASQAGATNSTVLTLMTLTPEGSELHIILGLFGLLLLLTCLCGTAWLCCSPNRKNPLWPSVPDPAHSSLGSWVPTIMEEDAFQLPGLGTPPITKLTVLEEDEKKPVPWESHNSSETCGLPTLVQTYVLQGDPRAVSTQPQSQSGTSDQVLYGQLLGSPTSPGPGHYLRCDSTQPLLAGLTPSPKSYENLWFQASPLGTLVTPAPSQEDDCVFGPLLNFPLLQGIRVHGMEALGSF

B1: G-CSF[E93N,I95T] (ligand)
chain: TPLGPASSLPQSFLLKALEQVRKIQGDGAALQEKLCATYKLCHPEELVLLGHSLGIPWAPLSSCPSQALQLAGCLSQLHSGLFLYQGLLQALNGTSPELGPTLDTLQLDVADFATTIWQQMEELGMAPALQPTQGAMPAFASAFQRRAGGVLVASHLQSFLEVSYRVLRHLAQP
modifications: consensus N-linked glycosylation site at Asn 93 (region 10)
B2: G-CSF[P57V,W58N,P60T] (ligand)
chain: B1 chain with P57V, W58N, P60T, N93E, T95I
modifications: consensus N-linked glycosylation site at Asn 58 (region 2)
B3: G-CSF[P60N,S62T] (ligand)
chain: B1 chain with P60N, S62T, N93E, T95I
modifications: consensus N-linked glycosylation site at Asn 60 (region 4)
B4: G-CSF[T133N,G135T] (ligand)
chain: B1 chain with N93E, T95I, T133N, G135T
modifications: consensus N-linked glycosylation site at Asn 133 (region 13), replacing the O-linked site
B5: G-CSF[A37N,Y39T] (ligand)
chain: B1 chain with A37N, Y39T, N93E, T95I
modifications: consensus N-linked glycosylation site at Asn 37 (region 1)
B6: G-CSF[A37N,Y39T,P57V,W58N,P60T,Q67N,L69T] (ligand)
chain: B1 chain with A37N, Y39T, P57V, W58N, P60T, Q67N, L69T, N93E, T95I
modifications: consensus N-linked glycosylation sites at Asn 37, Asn 58 and Asn 67 (regions 1, 2 and 9)
B7: G-CSF[S63N,P65T] (ligand)
chain: B1 chain with S63N, P65T, N93E, T95I
modifications: consensus N-linked glycosylation site at Asn 63 (region 7)
B8: G-CSF[Q67N,L69T] (ligand)
chain: B1 chain with Q67N, L69T, N93E, T95I
modifications: consensus N-linked glycosylation site at Asn 67 (region 9)
B9: G-CSF[A141N,A143T] (ligand)
chain: B1 chain with N93E, T95I, A141N, A143T
modifications: consensus N-linked glycosylation site at Asn 141 (region 14)
B10: G-CSF[A37N,Y39T,S63N,P65T,E93N,I95T] (ligand)
chain: B1 chain with A37N, Y39T, S63N, P65T
modifications: consensus N-linked glycosylation sites at Asn 37, Asn 63 and Asn 93 (regions 1, 7 and 10)

target: T1, G-CSF receptor; experiment: cell-based or functional assay

With B1 as the binder, how does the “EC50/Neupogen (reporter activity in cells expressing the G-CSF receptor)” value (from here on “EC50/Neupogen”) read?
Its value is 0.36 ratio to Neupogen.

Which “EC50/Neupogen” value does the source give for B2 here?
Its value is 0.59 ratio to Neupogen.

B3 was tested. Which “EC50/Neupogen” value did it give?
The value was 0.94 ratio to Neupogen.

With B4 as the binder, how does the “EC50/Neupogen” value read?
The value was 0.37 ratio to Neupogen.

With B5 as the binder, how does the “EC50/Neupogen” value read?
Its value is 0.8 ratio to Neupogen.

B6 was tested. Which “EC50/Neupogen” value did it give?
Its value is 0.53 ratio to Neupogen.

B7 was tested. Which “EC50/Neupogen” value did it give?
The value was 0.9 ratio to Neupogen.

B8 was tested. Which “EC50/Neupogen” value did it give?
The value was 0.78 ratio to Neupogen.

How did the “EC50/Neupogen” value turn out when B9 was run?
Its value is 0.54 ratio to Neupogen.

Which “EC50/Neupogen” value does the source give for B10 here?
The value was 0.97 ratio to Neupogen.

Reference: patent publication US20040254351A1 (published 2004)
